Assays:
human IGF-1R(1-903)-Fc [1] = target: T1, human IGF-1R(1-903)-Fc (human, UniProt P08069 31-933); assay: competition ELISA: antibody diluted in human IGF-2 His solution, added to biotinylated hIGF-1R-Fc on streptavidin plates, bound IGF-2 His detected with anti-His-HRP (blocked ligand: IGF-2 His)
T1 construct: also called hIGF-1R-Fc; SDWT; not shown: human IgG1 Fc, C-terminal tag
Method: (§1) hIGF-1R-Fc was biotinylated using EZ-Link Sulfo-NHS-LC-Biotin according to the protocol provided by the manufacturer (Pierce Cat. No. 21335). Biotinylated human IGF-1R Fc (NB12453-9) at 5 μg/ml was added to the wells of SigmaScreen streptavidin-coated 96-well plates (Sigma, Cat. No. M5432-5EA) at 100 μL/well and incubated overnight at 2-8° C. The plates were then washed four times with 200 μL/well PBST. […] The dilutions were added to the plates in duplicate at 100 μL/well and the plates were incubated at RT for 1 hour. The plates were then washed four times with 200 μL/well PBST. An HRP-conjugated anti-Histag antibody (Penta-His HRP Conjugate, QIAGEN, Cat. No. 1014992) was diluted 1:1000 in PBST and added to plates at 100 μL/well, and the plates were incubated at RT for one hour. The plates were then washed four times with 200 μL/well PBST. SureBlue Reserve TMB Microwell Peroxidase Substrate (KPL, Cat. No. 53-00-01) was added to plates at 100 μL/well followed by 1% phosphoric acid at 100 μL/well once the desired reaction was observed. The absorbance of each well was determined at 450 nm, and the results were normalized and plotted against the log of antibody concentration.

[2] = target: T2, hIGF-1R-Fc mutant SD103 (D461A, V462T) (human, UniProt P08069 31-933); assay: SPR, immobilized antibody
T2 construct: not shown: human IgG1 Fc, C-terminal tag
T2 sequence (P08069 31-933 D491A/V492T): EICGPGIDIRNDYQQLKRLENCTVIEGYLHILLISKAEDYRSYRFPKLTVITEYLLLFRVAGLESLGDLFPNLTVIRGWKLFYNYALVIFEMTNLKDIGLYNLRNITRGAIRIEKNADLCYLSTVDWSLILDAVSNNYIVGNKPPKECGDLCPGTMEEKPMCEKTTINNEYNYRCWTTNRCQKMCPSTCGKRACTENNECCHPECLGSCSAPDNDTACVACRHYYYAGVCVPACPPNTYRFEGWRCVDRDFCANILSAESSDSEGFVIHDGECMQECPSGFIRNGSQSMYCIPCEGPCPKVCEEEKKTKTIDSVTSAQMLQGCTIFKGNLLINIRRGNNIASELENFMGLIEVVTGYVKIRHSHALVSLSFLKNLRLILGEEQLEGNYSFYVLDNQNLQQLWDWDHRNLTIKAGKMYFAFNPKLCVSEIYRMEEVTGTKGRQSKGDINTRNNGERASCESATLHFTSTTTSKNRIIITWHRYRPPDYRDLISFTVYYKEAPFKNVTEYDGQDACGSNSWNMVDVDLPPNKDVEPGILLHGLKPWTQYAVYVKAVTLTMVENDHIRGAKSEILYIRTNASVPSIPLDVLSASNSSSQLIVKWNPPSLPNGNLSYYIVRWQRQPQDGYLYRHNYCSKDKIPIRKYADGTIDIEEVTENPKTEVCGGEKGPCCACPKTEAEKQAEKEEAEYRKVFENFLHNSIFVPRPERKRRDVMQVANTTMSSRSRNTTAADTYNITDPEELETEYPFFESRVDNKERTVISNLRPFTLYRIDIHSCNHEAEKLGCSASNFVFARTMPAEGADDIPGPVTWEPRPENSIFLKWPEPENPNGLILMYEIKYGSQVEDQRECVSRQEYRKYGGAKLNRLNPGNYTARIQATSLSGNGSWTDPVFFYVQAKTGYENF
Method: (§2) Surface plasmon resonance (SPR) experiments were performed on a Biacore 3000 instrument set to 25° C. […] The antibody sensorchip surfaces were prepared by injecting each antibody (diluted 100 μg/mL in 10 mM Acetate, pH 4.0) over EDC/NHS-activated sensorchip surfaces according to the standard protocol of the manufacturer. […] Both hIGF-1R-Fc and mIGF-1R-Fc proteins oligomerize due to the incorporation of two separate homodimeric regions (IGF-1R and IgG1-Fc). […] After, completion of the receptor-Fc loading step, flow rates were elevated to 5 μl/min. […] Dissociation was measured for 7 minutes after the antibody injections were complete. Finally, the flow rate was elevated to 30 μL/min and the chip surfaces were regenerated by 2×10 μL injections of 0.1 M glycine, pH 2.

human IGF-1R(1-903)-Fc [3] = target: T1, human IGF-1R(1-903)-Fc; assay: competition ELISA: antibody diluted in 320 nM human IGF-1 His, added to biotinylated hIGF-1R-Fc on streptavidin plates, bound IGF-1 His detected with anti-His-HRP (blocked ligand: IGF-1 His)
Method: as §1

human IGF-1R(1-903)-Fc [4] = target: T1, human IGF-1R(1-903)-Fc; assay: ELISA, blocking of IGF-2 His (640 nM by the table head) on biotinylated hIGF-1R-Fc
human IGF-1R(1-903)-Fc [5] = target: T1, human IGF-1R(1-903)-Fc; assay: IGF-1 blocking ELISA at 20 nM IGF-1 His on biotinylated hIGF-1R-Fc
Method: (§3) The dilutions were added to the plates in duplicate at 100 μL/well and the plates were incubated at RT for 1 hour. The plates were then washed four times with 200 μL/well PBST. An HRP-conjugated anti-Histag antibody (Penta-His HRP Conjugate, QIAGEN, Cat. No. 1014992) was diluted 1:1000 in PBST and added to plates at 100 μL/well, and the plates were incubated at RT for one hour. The plates were then washed four times with 200 μL/well PBST. SureBlue Reserve TMB Microwell Peroxidase Substrate (KPL, Cat. No. 53-00-01) was added to plates at 100 μL/well followed by 1% phosphoric acid at 100 μL/well once the desired reaction was observed. The absorbance of each well was determined at 450 nm, and the results were normalized and plotted against the log of antibody concentration.
(§4) Ligand Blocking Properties.

[6] = target: T3, human IGF-1R on H322M non-small cell lung cancer cells (human, UniProt P08069 31-1367); assay: flow cytometry on H322M cells
T3 construct: Endogenous receptor of the tumor cell line; also called cell surface IGF-1R
T3 sequence (P08069 31-1367, stated change not applied): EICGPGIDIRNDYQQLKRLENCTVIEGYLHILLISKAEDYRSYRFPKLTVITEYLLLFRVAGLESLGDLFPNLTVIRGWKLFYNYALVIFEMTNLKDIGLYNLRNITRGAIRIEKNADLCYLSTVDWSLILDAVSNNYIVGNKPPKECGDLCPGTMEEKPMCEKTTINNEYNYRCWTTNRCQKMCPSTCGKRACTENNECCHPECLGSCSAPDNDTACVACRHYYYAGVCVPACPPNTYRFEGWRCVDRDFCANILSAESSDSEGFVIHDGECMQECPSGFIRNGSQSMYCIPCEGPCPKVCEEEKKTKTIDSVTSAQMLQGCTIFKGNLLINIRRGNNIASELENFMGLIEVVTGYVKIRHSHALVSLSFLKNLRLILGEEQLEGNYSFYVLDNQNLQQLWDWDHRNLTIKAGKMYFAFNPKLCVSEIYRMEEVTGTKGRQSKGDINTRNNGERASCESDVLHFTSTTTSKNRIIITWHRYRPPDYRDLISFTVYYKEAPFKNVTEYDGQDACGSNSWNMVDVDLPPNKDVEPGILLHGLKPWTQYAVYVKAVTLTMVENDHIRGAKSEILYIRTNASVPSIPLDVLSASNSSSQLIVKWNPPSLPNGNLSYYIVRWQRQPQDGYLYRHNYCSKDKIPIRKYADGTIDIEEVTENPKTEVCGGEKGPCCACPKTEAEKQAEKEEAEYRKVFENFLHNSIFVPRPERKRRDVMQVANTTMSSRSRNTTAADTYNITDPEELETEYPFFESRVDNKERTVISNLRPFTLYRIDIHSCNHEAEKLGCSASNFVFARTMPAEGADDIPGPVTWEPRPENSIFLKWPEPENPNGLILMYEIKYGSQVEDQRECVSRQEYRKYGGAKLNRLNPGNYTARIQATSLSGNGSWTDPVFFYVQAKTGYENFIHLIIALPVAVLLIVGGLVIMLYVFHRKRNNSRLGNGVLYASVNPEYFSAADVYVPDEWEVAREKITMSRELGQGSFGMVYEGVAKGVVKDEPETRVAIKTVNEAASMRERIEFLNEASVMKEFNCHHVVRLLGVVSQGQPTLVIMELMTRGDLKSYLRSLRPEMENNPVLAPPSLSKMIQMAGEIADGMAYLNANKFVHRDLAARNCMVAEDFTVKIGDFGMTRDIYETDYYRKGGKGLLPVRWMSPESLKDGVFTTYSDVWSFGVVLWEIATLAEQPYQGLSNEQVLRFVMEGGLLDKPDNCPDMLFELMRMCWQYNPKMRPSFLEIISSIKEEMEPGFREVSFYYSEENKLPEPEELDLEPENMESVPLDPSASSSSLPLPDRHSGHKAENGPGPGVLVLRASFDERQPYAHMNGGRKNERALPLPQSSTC
Method: (§5) Cell lines were routinely cultured no greater than 20 passages. Flow cyotometric analysis of antibody binding to human cancer cells. Cells were lifted with cell dissociation buffer (Gibco catalog #13151-014), counted, washed and adjusted to 5×10⁶ cells/ml. Cells (2.5×10⁵; 50 uL) were added to each well of a 96-well round bottom plate (Costar #3799). Purified antibodies were tested at a starting concentration of 300 nM with serial half-log dilutions in FACS buffer. FACS buffer used throughout the assay was PBS (without Ca++/Mg++) containing 5% FBS. Samples were incubated on ice for 30 minutes, washed 3× with 200 uL FACS buffer and centrifuged at 1200 rpm for 3 minutes at 4° C. C2B8 (rituximab, IgG1) was used as a negative control. […] Samples were incubated for an additional 30 minutes on ice, shielded from light. Cells were washed as described above and resuspended in 100 μl FACS buffer containing propidium iodide (PI) for dead cell exclusion (BD Pharmingen, catalog# 51-66211E or 556463; use at 1:500 final in FACS buffer). Samples were run in triplicate using the FACSArray flow cytometer (Becton Dickinson) with 5000 live events collected per sample. Data analysis was performed using the GraphPad Prism version 5.0 software (GraphPad Software Inc., 11452 El Camino Real #215, San Diego, Calif. 92130). Results. […]

sIGF-1R(1-903) [7] = target: T4, sIGF-1R(1-903) (human, UniProt P08069 31-933); assay: ITC, 25 °C; footnote a: affinity too high for accurate measurement
T4 construct: also called soluble IGF-1R ectodomain
T4 sequence (P08069 31-933): as the sequence (P08069 31-933 D491A/V492T) above, with A461D, T462V counted along it
Method: (§6) Isothermal Titration Calorimetry (ITC). […] The reagents were co-dialyzed against PBS, pH 7.2. The protein solutions were adjusted to the concentrations listed above by dilution using PBS dialysate. […] The protein solutions were prepared as described above for the MAb binding experiments. All ITC experiments were performed on an ITC₂₀₀ microcalorimeter (MicroCal, LLC) at 25° C. […] IGF-1R bispecific antibodies. A four minute equilibration period was used between all injections with an initial delay of 60 seconds. Numerical integration of the data was performed using the ITC data analysis software supplied by MicroCal (Origin). ΔHA° (T) values were calculated based on the difference between the average heat liberated/absorbed during the binding phase of the injections and the average heat of dilution found once the receptor, IGF-1R, was saturated with MAb or BsAb.

sIGF-1R(1-903) [8] = target: T4, sIGF-1R(1-903); assay: ITC, 25 °C, antibody into sIGF-1R(1-903)
Method: as §6

sIGF-1R(1-903) [9] = target: T4, sIGF-1R(1-903); assay: equilibrium solution-phase SPR, free sIGF-1R(1-903) read on G11 surface
[10] = target: T3, human IGF-1R on H322M non-small cell …; assay: flow cytometry on H322M cells, anti-human Fc PE secondary (FIG. 55B)
Method: as §5

human IGF-1R(1-903)-Fc [11] = target: T1, human IGF-1R(1-903)-Fc; assay: IGF-2 blocking ELISA: antibody titrated in 640 nM IGF-2 His on biotinylated hIGF-1R-Fc on streptavidin plates, bound ligand detected with anti-His-HRP
human IGF-1R(1-903)-Fc [12] = target: T1, human IGF-1R(1-903)-Fc; assay: ELISA, blocking of 320 nM IGF-1 His on biotinylated hIGF-1R-Fc
Method: as §1

[13] = target: T3, human IGF-1R on H322M non-small cell …; assay: cell-based or functional assay
[14] = target: T3, human IGF-1R on H322M non-small cell …; assay: flow cytometry on H322M cells, anti-human Fab PE secondary (FIG. 55A)
Method: as §5

[15] = target: T5, human IGF-1R(1-902)-His10 (human, UniProt P08069 31-932); assay: SPR competition (Biacore 3000): soluble antibody titrated into 40 nM hIGF-1R-His, mixture injected over immobilized M14-G11
T5 construct: Bought from R&D Systems (305-GR-050); also called hIGF-1R-His10; hIGF-1R-His
T5 sequence (P08069 other isoform, or with tags, fused parts or gaps): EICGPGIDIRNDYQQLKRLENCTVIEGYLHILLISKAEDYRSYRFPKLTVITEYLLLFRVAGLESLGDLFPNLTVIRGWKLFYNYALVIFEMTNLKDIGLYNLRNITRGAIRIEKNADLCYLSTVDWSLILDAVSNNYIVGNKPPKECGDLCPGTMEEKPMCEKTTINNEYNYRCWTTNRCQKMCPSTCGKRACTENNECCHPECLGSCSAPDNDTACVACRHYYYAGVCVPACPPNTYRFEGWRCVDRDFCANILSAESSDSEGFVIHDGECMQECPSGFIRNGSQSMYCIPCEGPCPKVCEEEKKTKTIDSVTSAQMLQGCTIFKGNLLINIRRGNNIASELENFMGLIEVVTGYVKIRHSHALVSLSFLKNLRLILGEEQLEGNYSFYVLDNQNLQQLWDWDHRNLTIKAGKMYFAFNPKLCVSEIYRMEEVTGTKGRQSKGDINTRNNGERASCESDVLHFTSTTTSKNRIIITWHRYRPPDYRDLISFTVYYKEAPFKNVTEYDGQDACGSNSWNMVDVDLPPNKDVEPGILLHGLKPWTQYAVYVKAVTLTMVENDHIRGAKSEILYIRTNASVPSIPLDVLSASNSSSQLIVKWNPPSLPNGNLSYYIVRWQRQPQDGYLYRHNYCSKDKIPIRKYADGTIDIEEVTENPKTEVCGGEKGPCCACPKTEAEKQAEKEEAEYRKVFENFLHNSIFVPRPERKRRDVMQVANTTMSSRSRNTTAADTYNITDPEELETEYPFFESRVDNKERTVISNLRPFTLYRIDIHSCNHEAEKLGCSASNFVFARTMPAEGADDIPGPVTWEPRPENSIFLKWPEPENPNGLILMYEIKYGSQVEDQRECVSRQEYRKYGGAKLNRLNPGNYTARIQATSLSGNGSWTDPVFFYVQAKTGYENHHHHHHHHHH
Method: Regeneration was achieved by three 10 μL injections of 0.1 M glycine, pH 2.0. 100% hIGF-1R-His binding to each antibody was determined by the signal above the baseline under mass transport-limiting conditions 60 seconds into the injection.

sIGF-1R(1-903) [16] = target: T4, sIGF-1R(1-903); assay: ITC series titration, G11 MAb into sIGF-1R(1-903) holding excess C06 MAb
Method: The protein solutions were prepared as described above for the MAb binding experiments. All ITC experiments were performed on an ITC₂₀₀ microcalorimeter (MicroCal, LLC) at 25° C. […] IGF-1R bispecific antibodies. A four minute equilibration period was used between all injections with an initial delay of 60 seconds. Numerical integration of the data was performed using the ITC data analysis software supplied by MicroCal (Origin). ΔHA° (T) values were calculated based on the difference between the average heat liberated/absorbed during the binding phase of the injections and the average heat of dilution found once the receptor, IGF-1R, was saturated with MAb or BsAb.
Both the dimeric receptor and the bivalent MAbs contain two potential binding sites.

[17] = target: T6, hIGF-1R-Fc mutant SD008 (S257F) (human, UniProt P08069 31-933); assay: SPR, Fab over captured mutant hIGF-1R-Fc
T6 construct: not shown: human IgG1 Fc, C-terminal tag
T6 sequence (P08069 31-933 S287F): as the sequence (P08069 31-933 D491A/V492T) above, with S257F, A461D, T462V counted along it
Method: as §2

[18] = target: T7, hIGF-1R-Fc mutant SD012 (E303G) (human, UniProt P08069 31-933); assay: SPR, Fab over captured mutant hIGF-1R-Fc
T7 construct: not shown: human IgG1 Fc, C-terminal tag
T7 sequence (P08069 31-933 E333G): as the sequence (P08069 31-933 D491A/V492T) above, with E303G, A461D, T462V counted along it
Method: as §2

[19] = target: T8, hIGF-1R-Fc mutant SD202 (D250S) (human, UniProt P08069 31-933); assay: SPR, Fab over captured mutant
T8 construct: not shown: human IgG1 Fc, C-terminal tag
T8 sequence (P08069 31-933 D280S): as the sequence (P08069 31-933 D491A/V492T) above, with D250S, A461D, T462V counted along it
Method: as §2

[20] = target: T9, hIGF-1R-Fc mutant SD201 (D248A) (human, UniProt P08069 31-933); assay: SPR, Fab over captured mutant
T9 construct: not shown: human IgG1 Fc, C-terminal tag
T9 sequence (P08069 31-933 D278A): as the sequence (P08069 31-933 D491A/V492T) above, with D248A, A461D, T462V counted along it
Method: as §2

human IGF-1R(1-903)-Fc [21] = target: T1, human IGF-1R(1-903)-Fc; assay: IGF-1 blocking ELISA: antibody titrated in 320 nM IGF-1 His on biotinylated hIGF-1R-Fc on streptavidin plates, bound ligand detected with anti-His-HRP
Method: as §3, §4

T1 sequence (P08069 31-933): as the sequence (P08069 31-933 D491A/V492T) above, with A461D, T462V counted along it

B1: M14-C03 antibody (antibody, V domains shown)
VH: EVQLLESGGGLVQPGGSLRLSCAASGFTFSKYMMSWVRQAPGKGLEWVSYISPSGGLTWYADSVKGRFTISRDNSKNTLYLQMNSLRAEDTAVYYCARDGARGYGMDVWGQGTTVTVSS
VL: DIQMTQSPATLSLSPGERATLSCRASQSVSSYLAWYQQKPGQAPRLLIYDASNRATGIPARFSGSGSGTDFTLTISSLEPEDFAVYYCQQRSNWPPEVTFGPGTKVDIK
notes: Fully human full-length antibody (ATCC PTA-7445); also called M14.C03.G4.P.agly
IC50 (read off the curve) (human IGF-1R(1-903)-Fc [1]): ~1 nM | binding result [2]: no binding | IC50 (read off the curve) (human IGF-1R(1-903)-Fc [3]): ~5 nM

B2: M14-G11 antibody (antibody, V domains shown)
VH: EVQLLESGGGLVQPGGSLRLSCAASGFTFSNYPMYWVRQAPGKGLEWVSRISSSGGRTVYADSVKGRFTISRDNSKNTLYLQMNSLRAEDTAVYYCARDRWSRSAAEYGLGGYWGQGTLVTVSS
VL: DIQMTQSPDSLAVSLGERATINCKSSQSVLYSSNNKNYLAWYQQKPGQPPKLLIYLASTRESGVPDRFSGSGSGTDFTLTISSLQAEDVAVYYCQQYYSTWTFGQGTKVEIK
notes: Fully human full-length antibody; also called M14.G11.G4.P.agly; G11.G4P.agly
IC50 (human IGF-1R(1-903)-Fc [4]): 7.9 nM | IC50 (read off the curve) (human IGF-1R(1-903)-Fc [5]): ~2 nM | EC50 [6]: < 1 nM | -TΔS (sIGF-1R(1-903) [7]): 14.8 kcal/mol | Kd (sIGF-1R(1-903) [7]): 6 nM | ΔG (sIGF-1R(1-903) [7]): -11.2 kcal/mol | ΔH° (sIGF-1R(1-903) [8]): -26.6 kcal/mol | Kd (sIGF-1R(1-903) [9]): 0.1 nM | n (#G11 specific binding sites) (sIGF-1R(1-903) [9]): 1.1 | EC50 [10]: 0.72 nM | IC50 (read off the curve) (human IGF-1R(1-903)-Fc [11]): ~2 nM | IC50 (human IGF-1R(1-903)-Fc [12]): 13 nM | reduction of surface IGF-1R after 24 hours (FACS, H322M cells) [13]: > 70% | EC50 [14]: 0.44 nM | IC50 (read off the curve) [15]: ~20 nM | ΔH° (sIGF-1R(1-903) [16]): -16.2 kcal/mol

B3: M14-G11 Fab (Fab, V domains shown)
VH: EVQLLESGGGLVQPGGSLRLSCAASGFTFSNYPMYWVRQAPGKGLEWVSRISSSGGRTVYADSVKGRFTISRDNSKNTLYLQMNSLRAEDTAVYYCARDRWSRSAAEYGLGGYWGQGTLVTVSS
VL: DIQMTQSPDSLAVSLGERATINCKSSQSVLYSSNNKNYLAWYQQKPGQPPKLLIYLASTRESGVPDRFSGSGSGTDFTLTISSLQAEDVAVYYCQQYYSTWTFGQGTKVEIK
notes: Enzymatically derived Fab
fold loss in affinity (KD) against wild type [17]: ~3 fold | fold loss in affinity (KD) against wild type [18]: ~3 fold | Kd (sIGF-1R(1-903) [9]): 4 nM | n (#G11 specific binding sites) (sIGF-1R(1-903) [9]): 1.7 | binding result [19]: no binding (tested: up to 30 nM Fab) | binding result [20]: no binding (tested: up to 30 nM Fab) | IC50 (read off the curve) (human IGF-1R(1-903)-Fc [21]): ~6 nM

From patent publication US20090130105A1 (Biogen, published 2009)
